Bridges are numbered along the chain shown (N, C = ends). Where no end group is shown, it is not given here. [ ]: non-standard residue; d: D form. Dip = N[C@H](C(=O)O)C(c1ccccc1)c1ccccc1
Assays:
HER2 on SKBR3 cells = target: T1, HER2 on SKBR3 cells (UniProt P04626 23-1255, limits assumed); assay: FACS, SKBR3 cells without antibody
T1 construct: whole, on cells; also called HER2-expressing cells (SKBR3)

[1] = target: T2, wild-type M5A (anti-CEA antibody); assay: FACS, LS174T cells with 500 nM AF488 wild-type M5A and 9 µM AF647-MPL, 30 min [upper right histogram]
T2 construct: Humanized antibody with the same backbone as trastuzumab

[2] = target: T3, meditope-enabled M5A (M5A 8M); assay: FACS, LS174T cells with 500 nM AF488 M5A 8M and 9 µM AF647-MPL, 30 min [upper right histogram]
T3 construct: Eight point mutations in the light chain; wild-type heavy chain; expressed in NS0 cells; also called meditope-enabled anti-CEA antibody

wild-type trastuzumab [3] = target: T4, wild-type trastuzumab; assay: FACS, SKBR3 cells pre-treated with AF488 wild-type trastuzumab, then 0.1 or 1 µM AF647-MPL (L3), washed extensively
T4 construct: also called WT T

wild-type trastuzumab [4] = target: T4, wild-type trastuzumab; assay: FACS, SKBR3 cells pre-bound with WT T, washed, then 0.1 or 1 µM Alexa 647-MPL-5K
[5] = target: T3, meditope-enabled M5A (M5A 8M); assay: SPR, kinetic fit, meditope at 10, 2, 0.4 and 0.08 uM over M5A 8M IgG immobilized at 5000 RU
[6] = target: T3, meditope-enabled M5A (M5A 8M); assay: SPR
[7] = target: T5, meditope-enabled trastuzumab; assay: SPR; earlier SPR study of paragraph 680, approximate binding constant stated in text
T5 construct: Full IgG expressed in mammalian cells; also called TM; trastuzumab memAb
T5 sequence (heavy, as listed by the source limits assumed, chain 1 of 2): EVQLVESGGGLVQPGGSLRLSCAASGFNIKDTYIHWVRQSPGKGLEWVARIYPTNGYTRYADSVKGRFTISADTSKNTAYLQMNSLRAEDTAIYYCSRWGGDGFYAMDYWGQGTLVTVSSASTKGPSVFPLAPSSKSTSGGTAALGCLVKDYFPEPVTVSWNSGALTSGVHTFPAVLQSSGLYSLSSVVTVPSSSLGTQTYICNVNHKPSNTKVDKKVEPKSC
T5 sequence (light, as listed by the source limits assumed, chain 2 of 2): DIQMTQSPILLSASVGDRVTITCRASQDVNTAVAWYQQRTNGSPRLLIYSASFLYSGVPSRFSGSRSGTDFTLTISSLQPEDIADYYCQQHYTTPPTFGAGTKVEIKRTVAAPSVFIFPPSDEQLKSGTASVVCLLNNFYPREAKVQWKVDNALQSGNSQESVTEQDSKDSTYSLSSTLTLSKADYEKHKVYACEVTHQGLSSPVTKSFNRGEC

T3 sequence (light, as listed by the source, chain 1 of 2): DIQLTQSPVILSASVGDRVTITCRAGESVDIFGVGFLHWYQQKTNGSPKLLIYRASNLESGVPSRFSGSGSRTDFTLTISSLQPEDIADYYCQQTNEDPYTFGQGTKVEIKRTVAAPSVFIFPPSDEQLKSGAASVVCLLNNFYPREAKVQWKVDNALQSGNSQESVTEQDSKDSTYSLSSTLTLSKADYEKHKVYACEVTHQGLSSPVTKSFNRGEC
T3 sequence (heavy, as listed by the source, chain 2 of 2): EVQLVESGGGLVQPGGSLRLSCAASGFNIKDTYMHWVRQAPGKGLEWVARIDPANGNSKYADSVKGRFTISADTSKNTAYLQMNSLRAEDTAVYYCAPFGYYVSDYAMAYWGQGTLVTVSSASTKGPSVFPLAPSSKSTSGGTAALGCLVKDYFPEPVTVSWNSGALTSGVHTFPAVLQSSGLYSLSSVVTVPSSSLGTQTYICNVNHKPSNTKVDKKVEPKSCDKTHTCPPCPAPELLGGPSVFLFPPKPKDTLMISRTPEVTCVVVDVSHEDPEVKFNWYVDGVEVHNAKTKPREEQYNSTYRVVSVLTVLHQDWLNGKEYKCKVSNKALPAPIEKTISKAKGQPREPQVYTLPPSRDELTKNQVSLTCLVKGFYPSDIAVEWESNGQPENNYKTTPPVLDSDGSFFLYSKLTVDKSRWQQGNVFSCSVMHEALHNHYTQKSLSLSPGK
T4 sequence (heavy, as listed by the source limits assumed, chain 1 of 2, other chains not shown): as the sequence (heavy, as listed by the source limits assumed, chain 1 of 2) above, with S40A, I93V counted along it
T2 sequence (light, as listed by the source, chain 1 of 2): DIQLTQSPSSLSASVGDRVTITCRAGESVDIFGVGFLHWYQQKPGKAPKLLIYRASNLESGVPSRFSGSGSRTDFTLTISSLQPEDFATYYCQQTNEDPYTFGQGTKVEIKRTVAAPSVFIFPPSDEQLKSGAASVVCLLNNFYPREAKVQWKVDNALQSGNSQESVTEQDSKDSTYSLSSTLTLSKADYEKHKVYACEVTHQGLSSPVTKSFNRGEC
T2 sequence (heavy, as listed by the source, chain 2 of 2): as the sequence (heavy, as listed by the source, chain 2 of 2) above

B1: meditope-Protein L fusion protein (MPL), linker GGGGS (designed binder)
chain: SCQFDLSTRRLKCGGGGSEVTIKVNLIFADGKIQTAEFKGTFEEATAEAYRYAALLAKVNGEYTADLEDGGNHMNIKFAG
modifications: the two cysteines cyclized (disulfide)
notes: Labeled with AF647 in cell assays; also called MPL (L3); MPL (WT)
B1: no binding (tested: 0.1 µM or 1 µM MPL) (HER2 on SKBR3 cells); binds [1]; binds [2]. B1: no binding (tested: 1 µM) (wild-type trastuzumab [3]).

B2: meditope-Protein L fusion in which all but one lysine were mutated to arginine or asparagine (MPL-5K) (designed binder)
chain: SCQFDLSTRRLRCGGGGSEVTIRVNLIFADGNIQTAEFRGTFEEATAEAYRYAALLARVNGEYTADLEDGGNHMNIKFAG
B2: no binding (HER2 on SKBR3 cells); no binding (tested: 1 µM) (wild-type trastuzumab [4]).

B3: meditope 18 (C-QFDXSTRRLK-C) (peptide)
peptide: CQFD[Dip]STRRLKC
modifications: disulfide 1-12
notes: also called CQFDA(diphenyl)STRRLKC; 5-diphenyl meditope
With B3 the Kd [5] was 438 nM, the koff [5] was 0.015 s⁻¹ and the kon [5] was 34300 M⁻¹ s⁻¹.

B4: meditope 31 (AcC-QFDLSTRRLR-CGGGSK) (peptide)
peptide: Ac-CQFDLSTRRLRCGGGSK
modifications: disulfide 1-12; also: fluorescein attached in labeled form for polarization assay
B4: binds [6].

CQYNLSSRALKC (disulfide 1-12, also called meditope 2) [cQYN meditope (cyclic CQYNLSSRALKC)]: binds [6].

B5: Protein L (single Fab binding domain) (other)
chain: EVTIKVNLIFADGKIQTAEFKGTFEEATAEAYRYAALLAKVNGEYTADLEDGGNHMNIKFAG
notes: also called Protein L (only); protein L alone
B5 showed a Kd [7] of roughly 500 nM.
